Laboratory results reported in patent US20210070843A1.

B1: S06 (antibody, V domains shown)
VH: EVQLVESGGGLVQPGGSLRLSCAASGFTIGGGWIHWVRQAPGKGLEWVAFIGPYGGSTFYADSVKGRFTISADTSKNTAYLQMNSLRAEDTAVYYCARFNFGFWNHMDYWGQGTLVTVSS
VL: DIQMTQSPSSLSASVGDRVTITCRASQDVSSWVAWYQQKPGKAPKLLIYGTTFLHSGVPSRFSGSGSGTDFTLTISSLQPEDFATYYCQQYYNGPLTFGQGTKVEIKR
B2: S45 (antibody, V domains shown)
VH: EVQLVESGGGLVQPGGSLRLSCAASGFTINGSSIHWVRQAPGKGLEWVAYIGPFGGSTYYADSVKGRFTISADTSKNTAYLQMNSLRAEDTAVYYCARFWHGYNLYMDYWGQGTLVTVSS
VL: DIQMTQSPSSLSASVGDRVTITCRASQDVGWWVAWYQQKPGKAPKLLIYGARFLYSGVPSRFSGSGSGTDFTLTISSLQPEDFATYYCQQYFNGPLTFGQGTKVEIKR
B3: P58 (antibody, V domains shown)
VH: EVQLVESGGGLVQPGGSLRLSCAASGFTIGGGGIHWVRQAPGKGLEWVAWIWPYWGYTYYADSVKGRFTISADTSKNTAYLQMNSLRAEDTAVYYCARFNSYSYSGVMDYWGQGTLVTVSS
VL: DIQMTQSPSSLSASVGDRVTITCRASQDVYSYVAWYQQKPGKAPKLLISSSRGLYSGVPSRFSGSGSGTDFTLTISSLQPEDFATYYCQQYSSFPITFGQGTKVEIKR
B4: Do1 (antibody, V domains shown)
VH: EVQLVESGGGLVQPGGSLRLSCAASGFTIDNGSIHWVRQAPGKGLEWVAWIGPYGGFTSYADSVKGRFTISADTSKNTAYLQMNSLRAEDTAVYYCARFYGSGSSSFMDYWGQGTLVTVSS
VL: DIQMTQSPSSLSASVGDRVTITCRASQDVWGGVAWYQQKPGKAPKLLIFFSRYLYSGVPSRFSGSGSGTDFTLTISSLQPEDFATYYCQQYYNGPLTFGQGTKVEIKR
B5: S10 (antibody, V domains shown)
VH: EVQLVESGGGLVQPGGSLRLSCAASGFTIGGYGIHWVRQAPGKGLEWVASIGPSWGFTFYADSVKGRFTISADTSKNTAYLQMNSLRAEDTAVYYCARFNWVINGVTDYWGQGTLVTVSS
VL: DIQMTQSPSSLSASVGDRVTITCRASQDVSYYVAWYQQKPGKAPKLLIFWSTFLYSGVPSRFSGSGSGTDFTLTISSLQPEDFATYYCQQYYDSPMTFGQGTKVEIKR
B6: S11 (antibody, V domains shown)
VH: EVQLVESGGGLVQPGGSLRLSCAASGFTIDNGGIHWVRQAPGKGLEWVAWIGPYGGSTSYADSVKGRFTISADTSKNTAYLQMNSLRAEDTAVYYCARFGFGLHDLMDYWGQGTLVTVSS
VL: DIQMTQSPSSLSASVGDRVTITCRASQDVYSWVAWYQQKPGKAPKLLIYYSSFLYSGVPSRFSGSGSGTDFTLTISSLQPEDFATYYCQQYYNGPLTFGQGTKVEIKR
B7: S29 (antibody, V domains shown)
VH: EVQLVESGGGLVQPGGSLRLSCAASGFTISDYWIHWVRQAPGKGLEWVASIWPSGGYTYYADSVKGRFTISADTSKNTAYLQMNSLRAEDTAVYYCARFNWIVGHYMDYWGQGTLVTVSS
VL: DIQMTQSPSSLSASVGDRVTITCRASQDVFGGVAWYQQKPGKAPKLLIYWSSWLYSGVPSRFSGSGSGTDFTLTISSLQPEDFATYYCQQYYDGPITFGQGTKVEIKR
B8: P03 (antibody, V domains shown)
VH: EVQLVESGGGLVQPGGSLRLSCAASGFTIDSFGIHWVRQAPGKGLEWVAFIGPFGGSTFYADSVKGRFTISADTSKNTAYLQMNSLRAEDTAVYYCARFDSNSYSYHGIMDYWGQGTLVTVSS
VL: DIQMTQSPSSLSASVGDRVTITCRASQDVWGYVAWYQQKPGKAPKLLISWSGSLYSGVPSRFSGSGSGTDFTLTISSLQPEDFATYYCQQYYNWPVTFGQGTKVEIKR
B9: S48 (antibody, V domains shown)
VH: EVQLVESGGGLVQPGGSLRLSCAVSGFTIGDGSIHWVRQAPGKGLEWVASIGPYGGSTYYADSVKGRFTISADTSKNTAYLQMNSLRAEDTAVYYCARFHYGYWNNMDYWGQGTLVTVSS
VL: DIQMTQSPSSLSASVGDRVTITCRASQDVGWWVAWYQQKPGKAPKLLIYGTRWLYSGVPSRFSGSGSGTDFTLTISSVQPEDFATYYCQQYYSGPITFGQGTKVEIKR
B10: P38 (antibody, V domains shown)
VH: EVQLVESGGGLVQPGGSLRLSCAASGFTINDGGIHWVRQAPGKGLEWVAFIGPYGGSTFYADSVKGRFTISADTSKNTAYLQMNSLRAEDTAVYYCAGFIGDYSSYHGVMDYWGQGTLVTVSS
VL: DIQMTQSPSSLSASVGDRVTITCRASQDVWGYVAWYQQKPGKAPKLLISWPGGLYSGVPSRFSGSGSGTDFTLTISSLQPEDFATYYCQQYSSFPLTFGQGTKVEIKR
B11: P44 (antibody, V domains shown)
VH: EVQLVESGGGLVQPGGSLRLSCAASGFTIDGWWIHWVRQAPGKGLEWVAGIWPFGGFTSYADSVKGRFTISADTSKNTAYLQMNSLRAEDTAVYYCARSYSGYSGDYWGQGTLVTVSS
VL: DIQMTQSPSSLSASVGDRVTITCRASQDVNNNVAWYQQKPGKAPKLLIYWSSSLYSGVPSRFSGSGSGTDFTLTISSLQPEDFATYYCQQYYNFPVTFGQGTKVEIKR

Key:
[1] = molecular target: recombinant H3N2 WN/05 HA trimer (hemagglutinin ectodomain of A/Wisconsin/67/2005) (influenza A virus A/Wisconsin/67/2005 (H3N2)); experiment: ELISA, coated HA
[2] = molecular target: cell surface-expressed H3N2 WN/05 HA trimer (influenza A virus A/Wisconsin/67/2005 (H3N2)); experiment: flow cytometry, HA-expressing 293T
[3] = molecular target: full-length H5 A/Vietnam/1203/2004 HA expressed on 293T cells (influenza A virus A/Vietnam/1203/2004 (H5N1)); experiment: flow cytometry, HA-expressing 293T
[4] = molecular target: full-length H1 A/California/07/2009 HA expressed on 293T cells (influenza A virus A/California/07/2009 (H1N1)); experiment: flow cytometry, HA-expressing 293T
[5] = molecular target: cell surface-expressed H3N2 WN/05 HA trimer (influenza A virus A/Wisconsin/67/2005 (H3N2)); experiment: cell-based or functional assay
[6] = molecular target: full-length H5 A/Vietnam/1203/2004 HA expressed on 293T cells (influenza A virus A/Vietnam/1203/2004 (H5N1)); experiment: cell-based or functional assay
[7] = molecular target: H7 A/Anhui/1-BALF_RG17/2013 HA on H7N9 AH/13 pseudo virus (influenza A virus A/Anhui/1-BALF_RG17/2013 (H7N9)); experiment: cell-based or functional assay
[8] = molecular target: full-length H1 A/California/07/2009 HA expressed on 293T cells (influenza A virus A/California/07/2009 (H1N1)); experiment: cell-based or functional assay
[9] = molecular target: recombinant H5N1 VN/04 HA trimer (hemagglutinin ectodomain of A/Vietnam/1203/2004) (influenza A virus A/Vietnam/1203/2004 (H5N1)); experiment: ELISA, coated HA
[10] = molecular target: recombinant H7N9 AH/13 HA trimer (hemagglutinin ectodomain of A/Anhui/1-BALF_RG17/2013) (influenza A virus A/Anhui/1-BALF_RG17/2013 (H7N9)); experiment: ELISA, coated HA

Row | Molecule | EC50 [1] [µg/mL] | EC50 [2] [µg/mL] | max. MFI [2] [MFI] | max. MFI [3] [MFI] | max. MFI [4] [MFI] | IC50 of pseudo virus neutralization H3N2 WN/05 [5] [µg/mL] | IC50 of pseudo virus neutralization H5N1 VN/04 [6] [µg/mL] | IC50 of pseudo virus neutralization H7N9 AH/13 [7] [µg/mL] | IC50 of pseudo virus neutralization H1N1 CA/09 [8] [µg/mL] | IC50 of true virus neutralization H1N1 CA/09 [8] [µg/mL] | EC50 [9] [µg/mL] | EC50 [4] [µg/mL] | EC50 [10] [µg/mL] | EC50 [3] [µg/mL]
1 | CR8020 (antibody) | 0.0194 | 0.569 | 18000 | 639 | 91 | 0.0477 | > 200 | 0.052 | > 100 | > 500 | – | – | – | –
2 | C05 (antibody) | 0.00844 | – | – | – | – | – | – | – | – | – | – | – | – | –
3 | B1 | – | – | 135 | 249 | 1650 | > 20 | > 200 | > 200 | > 100 | > 500 | 0.311 | 3.98 | – | –
4 | B2 | – | 15.8 | 529 | 451 | 2470 | > 20 | > 200 | > 200 | > 100 | > 500 | 0.23 | 4.47 | – | –
5 | B3 | – | 3.58 | 697 | 6710 | 6290 | > 20 | > 200 | > 200 | > 100 | > 500 | > 10 | 0.25 | 0.504 | 0.366
6 | B4 | – | – | 278 | 313 | 228 | > 20 | > 200 | > 200 | > 100 | > 500 | > 10 | – | – | –
7 | B5 | – | 7.86 | 511 | 1100 | 10700 | > 20 | 0.267 | > 200 | 0.349 | 1560 | 0.259 | 3.38 | – | 0.79
8 | B6 | – | – | 207 | 434 | 5600 | > 20 | > 200 | > 200 | > 100 | > 500 | 0.0781 | 4.07 | – | –
9 | B7 | – | – | 188 | 367 | 6280 | > 20 | > 200 | > 200 | 0.672 | > 500 | > 10 | 4.22 | – | –
10 | B8 | – | – | 147 | 216 | 6020 | > 20 | > 200 | > 200 | > 100 | > 500 | > 10 | 0.494 | – | –
11 | B9 | – | – | 122 | 875 | 6240 | > 20 | > 200 | > 200 | > 100 | > 500 | 0.0737 | 4.86 | – | 1.92
12 | B10 | – | – | 137 | 240 | 988 | > 20 | > 200 | > 200 | > 100 | > 500 | – | 3.16 | – | –
13 | B11 | – | – | 127 | 188 | 8480 | > 20 | > 200 | > 200 | > 100 | > 500 | 0.1 | 0.466 | 0.163 | –
